# Reference: patent publication US20060222661A1
# Molecular target: human CD81 (on Huh-7 cells and human primary hepatocytes) (human) (UniProt P60033)
# Test: cell-based or functional assay
# Chain of human CD81 (on Huh-7 cells and human primary hepatocytes) (human) (P60033 whole entry): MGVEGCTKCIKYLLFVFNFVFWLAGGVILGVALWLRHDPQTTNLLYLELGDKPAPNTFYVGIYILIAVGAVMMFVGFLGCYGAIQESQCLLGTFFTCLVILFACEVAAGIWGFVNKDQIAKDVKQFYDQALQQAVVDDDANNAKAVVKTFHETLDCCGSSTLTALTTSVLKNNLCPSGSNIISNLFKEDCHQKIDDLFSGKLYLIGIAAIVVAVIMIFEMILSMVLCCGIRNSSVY
substance,measurement,value
JS-81 anti-CD81 monoclonal antibody (Pharmingen),"inhibition of infection by HCVpp of genotypes 1a and 1b, target cells pre-incubated with 30 µg/ml antibody",> 90%
